# Source: patent US20090305963A1, “Lipocalin 2 for the Treatment, Prevention, and Management of Cancer Metastasis, Angiogenesis, and Fibrosis” (priority 2005, published 2009)
# B1: lipocalin 2: human lipocalin 2 cDNA (HA tagged) in pcDNA3.1, stably expressed in 4T1-ras cells (RL clone); iron-siderophore binding protein (protein, UniProt P80188 21-198, looked up)
# Neutrophil …: QDSTSDLIPAPPLSKVPLQQNFQDNQFQGKWYVVGLAGNAILREDKDPQKMYATIYELKEDKSYNVTSVLFRKKKCDYWIRTFVPGCQPGEFTLGNIKSYPGLTSYLVRVVSTNYNQHAMVFFKKVSQNREYFKITLYGRTKELTSELKENFIRFSKSLGLPENHIVFPVPIDQCIDG
# modifications: HA tag
# Legend:
# [1] = test system: AKT; test: Western blot for phospho-AKT; assay type: cell-based, mouse
# Excerpt: FIGS. 14A-14B are western blots for phospho-AKT (pAKT) showing the downregulation of ras-induced AKT phosphorylation, but not IGF-1 induced AKT phosphorylation, by lipocalin 2. FIG. 14A is a western blot for pAKT showing the lysate from each 4T1 clone (EV, R and RL). FIG. 14B is a western blot for pAKT showing the lysate from EV or RL cells treated with or without IGF-1. GAPDH serves as a loading control.
# Cells were stained as described previously (Mammoto et al., Cancer Lett. 184:165-170, 2002) and images acquired with a Delta Vision system (Applied Precision, Issaquah, Wash.) equipped with an Axiovert 100 microscope (Carl Zeiss MicroImaging Inc., Shelton, Conn.) and a Photometrics 300 series scientific-grade cooled CCD camera, reading 12-bit images, and using the 63/1.4 NA plan-Neofluar objective. For immunoprecipitation and immunoblotting, tissues were weighed, diced, soaked in ice cold RIPA buffer with 1 mM phenylmethylsulfonyl fluoride (PMSF), 1 μg/ml Aprotinin, 1 mM Na3VO4, 1 nM NaF, homogenized on ice, centrifuged at 10,000 g for 10 minutes at 4° C., and the supernatant fluid collected as total cell lysate. […] Protein bands were detected using SuperSignal® West Pico Chemiluminescent Substrate (Pierce Chemical Co., Rockford, Ill.) (Hanai et al., J. Cell. Biol. 158:529-539, 2002).
# [2] = test system: 4T1 primary tumor; test: Western blot of total cell lysate from 4T1 primary tumors; assay type: in vivo, Balb/c mice
# Excerpt: 4T1 clones (EV, R and RL) were suspended in PBS and injected subcutaneously in the backs of Balb/c mice. 3 weeks later, primary tumor tissue was dissected, homogenized and the supernatant fluid was collected as total cell lysate. Western blot of total cell lysate from each primary tumor for the antigen is shown. GAPDH serves as a loading control. The E-cadherin, vimentin and GAPDH data is from Hanai et al., J. Biol. Chem. 280:13641-13647 (2005).
# (§1) Cells were stained as described previously (Mammoto et al., Cancer Lett. 184:165-170, 2002) and images acquired with a Delta Vision system (Applied Precision, Issaquah, Wash.) equipped with an Axiovert 100 microscope (Carl Zeiss MicroImaging Inc., Shelton, Conn.) and a Photometrics 300 series scientific-grade cooled CCD camera, reading 12-bit images, and using the 63/1.4 NA plan-Neofluar objective. For immunoprecipitation and immunoblotting, tissues were weighed, diced, soaked in ice cold RIPA buffer with 1 mM phenylmethylsulfonyl fluoride (PMSF), 1 μg/ml Aprotinin, 1 mM Na3VO4, 1 nM NaF, homogenized on ice, centrifuged at 10,000 g for 10 minutes at 4° C., and the supernatant fluid collected as total cell lysate. Cultured cells were washed, scraped, and solubilized in a lysis buffer containing 20 mM Tris-HCl pH 7.5, 150 mM NaCl, 0.5% Triton X-100, 1% aprotinin, and 1 mM PMSF. After 20 minutes on ice, the cells were pelleted by centrifugation and the supernatants were used as a cell lysate. Cell lysates or immunoprecipitated cell lysates were separated by PAGE (NuPAGE® gels; Invitrogen, Carlsbad, Calif.), followed by electroblotting onto a polyvinylidenedifluoride membrane (PVDF). Protein bands were detected using SuperSignal® West Pico Chemiluminescent Substrate (Pierce Chemical Co., Rockford, Ill.) (Hanai et al., J. Cell. Biol. 158:529-539, 2002).
# To determine whether lipocalin 2 could affect expression of anti-angiogenic factors in vivo, we injected EV, R, or RL cells subcutaneously in the backs of Balb/c mice and dissected the primary tumors at 3 weeks post-inoculation. As shown above and in Hanai et al., supra, E-cadherin and vimentin protein expression varied reciprocally in the three tumor types. We assessed the expression of VEGF and thrombospondin-1 (TSP-1) by western blot in each tumor tissue.
# [3] = test system: E-cadherin; test: EMT phenotype, E-cadherin and vimentin protein in 4T1 clones (microscopy, western blot); assay type: cell-based, mouse; conditions: RL cells compared to R cells
# Excerpt: as §1
# To assess the effects of lipocalin 2 on ras-mediated transformation, we chose a syngeneic spontaneously metastasizing murine breast cancer model (4T1 cell line) and accelerated its metastatic potential by introduction of constitutively active mouse H-ras mutant A12 using retrovirus. […] We generated stable clones of 4T1-ras cells expressing lipocalin 2 (RL) by transfection of a lipocalin 2 expression plasmid (lipocalin 2-pcDNA3.1). […] (FIG. 2A, lower panel, and FIG. 2B). […] Expression of E-cadherin in RL cells was dependent on the dose of lipocalin 2-pcDNA3.1 expression vector (transiently introduced in a population of R cells), on a conditioned medium containing lipocalin 2 (FIGS. 2D-E), as well as on recombinant lipocalin 2 protein. R cells shown in FIG. 2D were seeded in a 6-well plate and transfected with lipocalin 2 by FuGene 6 at 40% confluency. After 48 hours, cells were trypsinized, respread on 6-well plate, and transfected again in the same conditions. After 72 hours, cells were harvested and analyzed by western blotting. EV cells in FIG. 2E were seeded in a 6-well plate with 1 ml/well containing 10% FCS with DMEM and 2 ml of CM was added at 10% confluency. After 72 hours, cells were harvested and analyzed by western blotting. CM is a mixture of media from 293T cells transfected with lipocalin 2 and from 293 cells transfected with empty vector (pcDNA3.1).
# [4] = test system: VEGF; test: Measurement of VEGF levels by ELISA in conditioned media of 4T1 cells; assay type: cell-based, mouse; conditions: RL vs R cells; conditioned media, 2 days
# Description: Conditioned media of 4T1 cells were collected after 2 days of incubation. Murine VEGF levels were determined in duplicate using a commercially available sandwich ELISA kit (R&D Systems, Minneapolis, Minn.), with a affinity purified polyclonal antibody specific for mouse VEGF has been pre-coated onto a microplate. Results were compared with a standard curve of mouse VEGF with a lower detection limit of 7 pg/mL. A model 680 microplate-reader (Bio-Rad Laboratories, CA) was used to measure light intensity correlating with VEGF binding.
# [5] = test system: colon cancer cells; conditions: ectopic expression of lipocalin 2; cited from earlier work
# [6] = test system: 4T1-ras (R) cells; test: In vitro invasion assay (Matrigel-coated Transwells); assay type: cell-based, mouse; conditions: stable lipocalin 2 expression (RL) vs R cells; 16 hours
# Description: FIG. 3 is a graph depicting the invasion migration of stable 4T1 clones using EV, R, and RL cells. Polycarbonate membranes of Transwells were coated with Matrigel® and cells were seeded. Sixteen hours later, cells were fixed, stained with Giemsa solution, and counted for each of the stable clones; EV, R, and RL.
# Polycarbonate membranes (6.5 mm diameter, 8 μm pore size) of Transwells (Coster, N.Y.) were coated with Matrigel® (BD Biosciences, Franklin Lakes, N.J.) and cells were seeded (10^6 cells/100 μl) with DMEM including 0.1% serum. 16 hours later, cells were fixed, stained with Giemsa solution, and the upper surface of each membrane was scraped with a cotton swab. Cells that had reached the lower surface of the membrane (migrated cells) were counted in 20 random fields using a light microscope (×400).
# [7] = test system: colon cancer cells; conditions: ectopic expression of lipocalin 2; cited from earlier work; remark: listed apart in the source
# [8] = test system: E-cadherin; test: E-cadherin phosphorylation (immunoprecipitation and western blot); assay type: cell-based, mouse; conditions: R cells vs RL cells or R cells with inhibitor
# Excerpt: as §1
# [9] = test system: caveolin-1; test: Western blot of caveolin-1 expression in 4T1 clones; assay type: cell-based, mouse; conditions: RL vs R cells
# Excerpt: FIGS. 17A-17C show the involvement of caveolin-1 in the MET-inducing and anti-angiogenic function of lipocalin 2.
# as §1, with “Cell lysates or immunoprecipitated cell lysates were separated by PAGE (NuPAGE® gels; Invitrogen, Carlsbad, Calif.), followed by electroblotting onto a polyvinylidenedifluoride membrane (PVDF).” left out
molecule,measurement,setting,value
B1,IGF-1-induced phosphorylation of AKT,[1]; EV or RL cells with or without IGF-1,does not downregulate
same,ras-induced phosphorylation of AKT,"[1]; EV, R and RL clones",downregulates
same,E-cadherin in primary tumors,[2]; RL tumors vs R,more E-cadherin
same,vimentin in primary tumors,[2]; RL tumors vs R,less vimentin
same,TSP-1 protein in primary tumors,"[2]; RL vs R and EV tumors, 3 weeks post-inoculation",returned in RL cells to the levels noted in EV cells
same,ras-induced increase of VEGF protein in primary tumors,"[2]; RL vs R tumors, 3 weeks post-inoculation",completely abrogated
same,E-cadherin expression,[3],re-expressed E-cadherin
same,cell morphology,[3],reverted to an epithelial morphology
same,vimentin expression,[3],suppressed the expression of mesenchymal vimentin
same,suppression of ras-induced VEGF secretion,[4],≈ 7.5 fold
same,liver metastasis,[5],inhibited liver metastasis
same,reversal of ras induced invasiveness in vitro,[6],approximately 76%
same,invasiveness of colon cancer cells,[7],suppressed the invasiveness of colon cancer cells
same,E-cadherin phosphorylation,[8],markedly downregulated
same,caveolin-1 expression,[9],rescued this loss of caveolin-1
